Data on ten variants can be found in the supplement of paper PMC7125110.

B1: glmS ribozyme (parent)
chain: AUAAAAGCGCCAGAACUACAGAAAUGUAGUUGACGAGGAGGAGGUUUAUCGAAUUUUCGGCGGAUGCCUCCAAA

Common to all, as to details: with glucosamine-6-phosphate
Variants of B1 are the subject of series [1]. Nature of the series: kcat; higher = faster cleavage; RNA array. In short, it runs like this: (§1)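 Barcoded glmS ribozyme variants on sequenced MiSeq chips were transcribed in situ by E. coli RNA polymerase and tracked through a hybridised Cy3 probe at 37 °C. Glucosamine-6-phosphate (40 μM to 10 mM) in HEPES/KCl/Mg(OAc)2 buffer was flowed in, and tiles were imaged over ~14 h. Signals were normalised to baseline and to non-cleaving reference variants; per-tile medians were fit to one- or two-exponential decays to give kobs. kcat and KM came from weighted Michaelis–Menten fits across concentrations.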

In series [2] the parent is B1. Nature of the series: self-cleavage kobs at 40 uM GlcN6P; higher = faster cleavage; RNA array. In outline:
as §1

The variants in series [3] derive from B1. Briefly: KM; higher = weaker cofactor use; RNA array. In outline:
as §1

Series [4] covers variants of B1. Briefly: self-cleavage kobs at 160 uM GlcN6P; higher = faster cleavage; RNA array. In outline: as §1
In series [5] the parent is B1. Briefly: self-cleavage kobs at 2500 uM GlcN6P; higher = faster cleavage; RNA array. In short, it runs like this: as §1
Variants of B1 are the subject of series [6]. Nature of the series: self-cleavage kobs at 640 uM GlcN6P; higher = faster cleavage; RNA array. In outline:
as §1

Series [7] covers variants of B1. Nature of the series: self-cleavage kobs at 10000 uM GlcN6P; higher = faster cleavage; RNA array. In short, it runs like this: as §1

As usually defined, the kcat is the maximal rate divided by the concentration of active sites. Usually KM stands for the concentration of substrate that gives half-maximal velocity.

± gives the standard error. For some assays here: This sample holds only a part of the variants without activity.

For AUAAAAGCGCCAGAACUACAGAAAUGUAGUUGACGAGAAGGAGGUUUAUCGAAUUUUCGGCGGAUGCCUACAAA [G38A C70A], the kcat with glucosamine-6-phosphate [1] was under 1e-05 s⁻¹. In the series with glucosamine-6-phosphate [2], the “self-cleavage kobs at 40 uM GlcN6P” value is under 1e-05 s⁻¹.

With AUAAAAGCGCCAGAACUACAGAAAUGUAGUUGACGAGGAGGAGGUUUAUCGAAUCUGCGGCGGAUGCCUCCAAA [U55C U57G], the catalytic constant (kcat) with glucosamine-6-phosphate [1] is 3.92e-05 ± 2.9e-06 s⁻¹. Also, the KM in the series with glucosamine-6-phosphate [3] was found to be 840 ± 320 µM. In addition, in the series with glucosamine-6-phosphate [2], the “self-cleavage kobs at 40 uM GlcN6P” value was under 1e-05 s⁻¹. For the same variant, in the series with glucosamine-6-phosphate [4], the “self-cleavage kobs at 160 uM GlcN6P” value was under 1e-05 s⁻¹. In addition, the “self-cleavage kobs at 2500 uM GlcN6P” value with glucosamine-6-phosphate [5] was determined as 2.98e-05 ± 1.5e-05 s⁻¹.

On to AUAAAAGCGCCAGAACUACAGAAAUGUAGUUGACGAGGAGGAGGUUCAUCGAAUUUUCGGCGGAUGGCUCCAAA [U47C C67G], for which, in the series with glucosamine-6-phosphate [1], the kcat was 0.000337 ± 4.8e-05 s⁻¹. The KM with glucosamine-6-phosphate [3] amounted to 1740 ± 450 µM. Moreover, in the series with glucosamine-6-phosphate [4], the “self-cleavage kobs at 160 uM GlcN6P” value was determined as 3.84e-05 ± 8.3e-06 s⁻¹. Besides, the “self-cleavage kobs at 640 uM GlcN6P” value in the series with glucosamine-6-phosphate [6] amounted to 8.28e-05 ± 9.1e-06 s⁻¹. In addition, the “self-cleavage kobs at 2500 uM GlcN6P” value in the series with glucosamine-6-phosphate [5] turned out to be 0.000239 ± 3.4e-05 s⁻¹. Besides, the “self-cleavage kobs at 10000 uM GlcN6P” value with glucosamine-6-phosphate [7] is 0.000279 ± 3.1e-05 s⁻¹.

Regarding AUAAAAGCGCCAGAACUACAGAAAUGUAGUUGACGAGGAGGAGGUUUAUCGAAUCUUCGUCGGAUGCCUCCAAA [U55C G60U], the kcat with glucosamine-6-phosphate [1] turned out to be 1.04e-05 ± 3.4e-06 s⁻¹. Besides, the “self-cleavage kobs at 40 uM GlcN6P” value with glucosamine-6-phosphate [2] is under 1e-05 s⁻¹. Besides, the “self-cleavage kobs at 160 uM GlcN6P” value with glucosamine-6-phosphate [4] was under 1e-05 s⁻¹. The “self-cleavage kobs at 640 uM GlcN6P” value in the series with glucosamine-6-phosphate [6] is under 1e-05 s⁻¹. The “self-cleavage kobs at 10000 uM GlcN6P” value with glucosamine-6-phosphate [7] was under 1e-05 s⁻¹.

On to AUAAAAGCGCCAGAAAUACAGAAAUGUAGUUGACGAGGAGGAGGUUUAUCGAAUUUUCGGCGCAUGCCUCCAAA [C16A G63C], for which, in the series with glucosamine-6-phosphate [1], the kcat is under 1e-05 s⁻¹. Moreover, the “self-cleavage kobs at 160 uM GlcN6P” value with glucosamine-6-phosphate [4] was under 1e-05 s⁻¹.

As for AUAAAAGCGCAAGAACUACAGAAAUGUAGUUGACGAGGAGGAGGUUUAUCGAAUUUUCGGUGGAUGGCUCCAAA [C11A C61U C67G], the turnover number (kcat) with glucosamine-6-phosphate [1] was under 1e-05 s⁻¹.

Consider AUAAAAGCGCCAGAACUACAGAAAUGUAGUUGACGAGGAGGAGGUUCAUCGAAUUUUCGGCGGAUACCUCCAAA [U47C G66A], for which the kcat with glucosamine-6-phosphate [1] amounted to 0.00207 ± 0.00059 s⁻¹. Also, in the series with glucosamine-6-phosphate [3], the KM is 1050 ± 470 µM. The “self-cleavage kobs at 40 uM GlcN6P” value in the series with glucosamine-6-phosphate [2] stood at 0.000111 ± 2.1e-05 s⁻¹. Also, the “self-cleavage kobs at 160 uM GlcN6P” value with glucosamine-6-phosphate [4] came to 0.00017 ± 6.1e-05 s⁻¹. Further, in the series with glucosamine-6-phosphate [6], the “self-cleavage kobs at 640 uM GlcN6P” value worked out at 0.000815 ± 0.0002 s⁻¹. In addition, the “self-cleavage kobs at 2500 uM GlcN6P” value with glucosamine-6-phosphate [5] stood at 0.00159 ± 0.00037 s⁻¹. In the series with glucosamine-6-phosphate [7], the “self-cleavage kobs at 10000 uM GlcN6P” value worked out at 0.00183 ± 0.0004 s⁻¹.

In the case of AUAAAAGCGCCAGAACUACAGAAAUGUAGUUGACGAGGAGAAGGUUUAUCGAAUGUUCGGCGGAUGCCUCCAAA [G41A U55G], the kcat in the series with glucosamine-6-phosphate [1] was determined as 0.000144 ± 2.3e-05 s⁻¹. Besides, the “self-cleavage kobs at 160 uM GlcN6P” value with glucosamine-6-phosphate [4] was determined as 5.67e-05 ± 1.5e-05 s⁻¹. Besides, the “self-cleavage kobs at 640 uM GlcN6P” value with glucosamine-6-phosphate [6] was 0.000142 ± 3.9e-05 s⁻¹. Besides, the “self-cleavage kobs at 2500 uM GlcN6P” value with glucosamine-6-phosphate [5] was determined as 0.000107 ± 1.9e-05 s⁻¹. The “self-cleavage kobs at 10000 uM GlcN6P” value in the series with glucosamine-6-phosphate [7] came out at 0.000179 ± 2.9e-05 s⁻¹.

With AUAAAAGCGCCAGAAGUACAGAAAUGUAGUUGACGAGGAGGAGGUCUAUCGAAUUUUCGGCGGAUGCCUCCAAA [C16G U46C], the kcat in the series with glucosamine-6-phosphate [1] was found to be 0.000353 ± 5e-05 s⁻¹. Moreover, the KM in the series with glucosamine-6-phosphate [3] is 2310 ± 630 µM. Also, the “self-cleavage kobs at 640 uM GlcN6P” value with glucosamine-6-phosphate [6] is 8.24e-05 ± 2.7e-05 s⁻¹. For the same variant, in the series with glucosamine-6-phosphate [5], the “self-cleavage kobs at 2500 uM GlcN6P” value came to 0.000169 ± 3.5e-05 s⁻¹. For the same variant, the “self-cleavage kobs at 10000 uM GlcN6P” value in the series with glucosamine-6-phosphate [7] is 0.00032 ± 9e-05 s⁻¹.

AUAAAAGCGCCAGAGGUACAGAAAUGUAGUUGACGAGGAGGAGGUUUAUCGAAUUUUCGGCGGAUGCCUCGAAA [A15G C16G C71G]: the kcat in the series with glucosamine-6-phosphate [1] is 0.000103 ± 1.4e-05 s⁻¹. Further, in the series with glucosamine-6-phosphate [5], the “self-cleavage kobs at 2500 uM GlcN6P” value turned out to be 0.000115 ± 4e-05 s⁻¹. Moreover, the “self-cleavage kobs at 10000 uM GlcN6P” value with glucosamine-6-phosphate [7] came out at 9.34e-05 ± 2.6e-05 s⁻¹.
